# Experimental data: the nanobody polyreactivity screen of Harvey et al. (2022)
# Assay: yeast display, Sf9 membrane polyspecificity reagent, FACS + sequencing; frameworks hold sequencing errors
# How it was run: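 Genes from sorted yeast were amplified by colony PCR, read by MiSeq 2 × 250 sequencing and filtered on CDR length. These cells carried a synthetic nanobody library in Saccharomyces cerevisiae BJ5465 and were sorted by FACS into low and high (top ~1%) gates on anti-HA and streptavidin fluorescence. Polyreactivity is labelled according to the gate of origin.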
row,Sequence,polyreactivity (PSR sort gate)
1,QVQLVESGGGLVQGGGSLRLSCAASGSIFPGNAMGCYRQAPGKERELLAVIDFSGASTYYADSLKGRFTISRDNAKNTVYLQMKSLKPEATAVYWGQGTQVTVSS,low polyreactivity
2,QVQLVESGGGLVQAGGSLRLICAASGSTFSSNAMAWFRQAPGKERELVAAIDRGGSTNYADSVKGRFTISRDNAKNTVYFQMNCLKAEDTAVYYCKAERVTYDTGRAVLPGGYWGQGTQVTVSS,low polyreactivity
3,QVQLVESGGGLVQAGGSLRLSCAASGNIFYGYAMGWYRQAPGKERELVAAISGSSTYYADSVKGRFTISRDNAKNTVYLEMNSLKPEDTAVYYCAVPQYLYLQAGHGYRYYYWGQGTQVTVSS,high polyreactivity
4,QVHLVESGGGLVQAGGSLRLSCAASGSILLWNTMGWYRQAPGKERELVADIRLSASSTYYADSVKGRFTISRDNAKNTVYLQMNSLKPEDTAVYYCAADEYTPEYCQGYDYWGQGTQVTVSS,low polyreactivity
5,QVQLVESGGGLVQAGGSLRLSCAASGIIFASNAMGWYRQAPGKQRELVATINWTDSSTYYADSVKGRFTISRDNAKNTVYLQMNSLKPEDTAVYYCAVVDVEEHVGHWGQGTQVTVSS,low polyreactivity
6,QVQLVESGGGLVQAGGSLRLSCAASGFTFSHNAMGWSRQAPGKERELVAGINGSGGSTYYADSVKGRFTISRDNAKNTFYLQMNSLKPEDTAVYYCSKDGSNRLALPAWDYNYWGQGTQVTVSS,low polyreactivity
7,QVQLVESGVGLVQAGGSLRLSCAASGRIFIKYAMGWYRQAPGKEREFVAAISGRGGSTYYADSVKGRFTISRDNAKNTVYLQMNSLKPEDTAVYYCAKRFFSSGTAAGMYYWGQGTQVTVSS,high polyreactivity
8,QVQLVESGGGLVQAGGSLRLSCAASGITFGYYAMGWYRQAPGKERELVAAISRTGSTTYYADSVKGRFTISRDNAKNTVYLQMNRLKPEDTAVYYCAARRWGTNGGGSPMYYWGQGTQVTVSS,high polyreactivity
9,QVQLVESGAGLVQAGGSLRLSWAASGFTFAQNAMGWYTQAPGKERELVAAISRRGGSTYYADSVKGRFTISRDNAKNTVYLQMNSLKPEDTAVYYCDTAGTYTGGEGYWGQGTQVTVSS,high polyreactivity
10,QVQLVESGVGIVQARGSLRLSCAASGYTFYRYTMGWYRQSRGNERELVAAINSGGSTNYADSVKGRFTISRDNAKNTVYLQMNSLKPEDTAVYYCAAGDGPWLPRVHYGGYGYWGQGTQVTVSS,high polyreactivity
11,QVQLVESGGGLVQAGGSLRLSCAASGSIFDFYAMGWYRQAPGKERELVAAINSGGRTYADSVKGRFTISRDNAKNTVYLQMNSLKPEDTAVYYCAAEYQYLSVEVTDIWYLTKYDYWGQGTQVTVSS,low polyreactivity
12,QVQIVESGGGLVQAGGSLRISCAASGSIFVQYAMGLYRQAPGKERELVAAITTGGGTNYADSVKGRFKISRDNAKNTVYLQMNSLKPEDTAVYSCAADSRWLVRLYDYWGHGTQVTVSS,low polyreactivity
13,QVQRVESGGGLVQAGGSLRLSCAASGFIFYGNTMGWYREAPGKERELVASITSGSSTHYAYSVKGRFTISRDNAKNTVYLQMNSLKPEDTAVYYCIVDDIQFGKYDYWGQGTQVTVSS,low polyreactivity
14,QVQLVESGGGLVQAGGSLRLSCAASGNIFYWYAMGWYRQAPGKEREFVAAITRSGGSTSYADSVKGRFTISRDNAKNTVYLQMNSLKPEDTAVYYCNATHWVHFQEFYSWGPGTQVTVSS,low polyreactivity
15,QVQLVESGGGLVQAGGSLRLSCAASGHIFFVNAMGWYRQAPGKERELVAAINSVGSTYYADSVKGRFTISRDNAKNTVYLQMNSLKPEDTAVYYCAADSVYSQRHSWAYEDDYWGQGTQVTVSS,low polyreactivity
16,QVQLQDSGGGLEQAGGSLRMSCAANGNIFDADIVGRYRQAQGKKRELVASITDGGITNYADSVKGRFTISRDNAKYTVYLQMNSQNPEDTAVYYCAAIAYPDIPTYFDYDSDFFYWGQGTQVTVSS,high polyreactivity
17,QVQLVESGGGLVQAGGSLRLSCAAYGSTFNGNAMGWYRQAPGKERELVARISFDGTSTYYADSVKGRFTISRDNAKNTVYLQMNSLKPEDTAVYYCNVMFPRDHGFPGYGYWGQGTQVTVSS,low polyreactivity
18,QVQLVESGGGLVQAGGSLRLSCAASGRTFANYAMGWYRQAPGKERELVAAISSGGNTYYADSVKGRFTISRDNAKNTVYLQMNSLKPEDTAVYYCNAPWYYRYQRNEYGYWGQGTQVTVSS,high polyreactivity
19,QVQLVESGGGLVQAGGSLRLSCDASGSIFAKNAMGWYRQAPGKERELVAAIDLNGGSTYYADSVKGRFTISRDTAKNTVYLQMNILKPEDTAVYYCDVYYGHSCVIRSSPEYDSWGQGTQVTVSS,low polyreactivity
20,QVQLVESGGGLVQAGGSLRLSCAASGRTFGRYAMGWYRQAPGKERELVAAISIRGGRTTYADSVKGRFTISRDNAKNTVYLQMNSLKPEDTAVSYCAKVISVRGGYGYWGQGTQVTVSS,high polyreactivity
21,QVQLVESGGGLVQAGGSLRLSCASSGLIFVVYAMGWYRQAPGKERELVAAISTSGDRTYYADSVKGRFTISRDNAKNTVYLLMNSLKPEDTAVYYCAAGRRKVPYCREYYYWGQVTQVTVSS,high polyreactivity
22,QVQLVESGGGLVQAGGSLRLSCADSGLTFRRYAMGWYRQAPGKERELVAAITRGGSTNYADSVKGRFTISRVNAKNTVYLQMNSLKPEDTAVYFCAAVYSTRSTSYWMDYWGQGTQVTVSS,high polyreactivity
23,QVQLVESGGGLVQAGGSLRLSCAASGITFYLNAMGWYRQAPGKDRELVADITVSGGSTYYADSVKGRFTISRDNAKNTVYLQMNSLKPEDTAVYYCAADLTISYSQEYYYWGQGTQVTLSS,low polyreactivity
24,QVQLVESGGGLVQAGGSLRLSCAASGSTFSDNAMGGYRQAPGKERELVAAINETGGSTYYADSVKGRFTISRDNAKNTVYLQMNSLKPEDTAVYYCNADIDPYGATYAIEYDYWGQGTQVTVSS,low polyreactivity
25,QDQLVESGGALVQAGRSLRLSCAASGIIYIYYAMGWYIQAPGKERELVAAISGSGDSTYYADSVKGRFTISRDNAKNTVYLQMNSLKPEDTAVYYCARRSPNPYSIYYYWGQGTQVTVSS,high polyreactivity
26,QVQLVESGGGLVQAGGSLRLSCAASGSTFGVNAMGWYRQAPGTERELVADISVRTDSTYYADSVKGRVTISRDNAKNTVYLQMNSLKAEDTAVYYCNAGLGIEYDYWGQGTQVSVSS,low polyreactivity
27,QVQLVESGGGLVQAGGSLRLSCAASGSTFRYNAMGWYRQAPGKERELVAAITSGGGTNYADSVKGRFTISRDNAKNTVYLQMNSLKPEDTAVYYCAAGAWRGPYSGYYYWGQGTQVTVSS,low polyreactivity
28,QVQLVESGGGLVQAGGSLRLSCAASGSTFFRYDMGWYRQAPGKERELVADINYNGGSTYYADSVKGRFTISRDNAKNTVYLQMNSLKPEDTAVYYCAAAYRVRGRTYDSWGQGTQVTVSS,high polyreactivity
29,QVQLVESGGGLVQAGGSLRISCAASGYIYGYNAMGWYRQAPGIAREFVAAIRFSGGSTYYADSVKGRFTISRDNAKNTVYLQMNSLKPEDTAVYYCAKRCYAHLIPIAYEYWGQGTQVTVSS,low polyreactivity
30,QVQLVESGGGLVQAGGSLRLSCAASGFTFSAYAMGWYRQAPGKERELVAAITLRGGSTYYADSVKGRFTISRDNAKNTVYLQMNSLKPEDTAVYYCNADRWTRTEEEVDYWGQGTQVTVSS,low polyreactivity
